Assay results as given in PMC7435274.

Experiments:
[1] = biological target: Cys^5-antag: secretin antagonist (c[E^16, K^20], Y^10, I^17, Cha^22, R^25)sec(5–27) with cysteine in position 5; assay: cysteine trapping with 125I-labeled probe, SDS-PAGE autoradiography densitometry; conditions: SecR cysteine replacement mutants transiently expressed in COS-1 cells; nonreducing conditions; three experiments; read off a plot
[2] = biological target: Cys^6-antag: secretin antagonist (c[E^16, K^20], Y^10, I^17, Cha^22, R^25)sec(5–27) with cysteine in position 6; assay: as above; conditions: SecR cysteine replacement mutants transiently expressed in COS-1 cells; nonreducing conditions; three experiments; read off a plot

A response (% of maximal signal within this loop) [1] of 14 and a response (% of maximal signal within this loop) [2] of 41 were found for “wild-type human secretin receptor, on COS-1 cells (from UniProt P47872) Q369C” in this work.
A response (% of maximal signal within this loop) [1] of 18 and a response (% of maximal signal within this loop) [2] of 35 were found for “wild-type human secretin receptor, on COS-1 cells (from UniProt P47872) M366C” in this work.
A response (% of maximal signal within this loop) [1] of 4 and a response (% of maximal signal within this loop) [2] of 12 were found for “wild-type human secretin receptor, on COS-1 cells (from UniProt P47872) E367C” in this work.
A response (% of maximal signal within this loop) [1] of 35 and a response (% of maximal signal within this loop) [2] of 88 were found for “wild-type human secretin receptor, on COS-1 cells (from UniProt P47872) L374C” in this work.
A response (% of maximal signal within this loop) [1] of 22 and a response (% of maximal signal within this loop) [2] of 33 were found for “wild-type human secretin receptor, on COS-1 cells (from UniProt P47872) D364C” in this work.
A response (% of maximal signal within this loop) [1] of 30 and a response (% of maximal signal within this loop) [2] of 40 were found for “wild-type human secretin receptor, on COS-1 cells (from UniProt P47872) P362C” in this work.
A response (% of maximal signal within this loop) [1] of 87 and a response (% of maximal signal within this loop) [2] of 80 were found for “wild-type human secretin receptor, on COS-1 cells (from UniProt P47872) S361C” in this work.
A response (% of maximal signal within this loop) [1] of 75 and a response (% of maximal signal within this loop) [2] of 93 were found for “wild-type human secretin receptor, on COS-1 cells (from UniProt P47872) F358C” in this work.
A response (% of maximal signal within this loop) [1] of 12 and a response (% of maximal signal within this loop) [2] of 20 were found for “wild-type human secretin receptor, on COS-1 cells (from UniProt P47872) I368C” in this work.
A response (% of maximal signal within this loop) [1] of 22 and a response (% of maximal signal within this loop) [2] of 21 were found for “wild-type human secretin receptor, on COS-1 cells (from UniProt P47872) E363C” in this work.
A response (% of maximal signal within this loop) [1] of 88 and a response (% of maximal signal within this loop) [2] of 98 were found for “wild-type human secretin receptor, on COS-1 cells (from UniProt P47872) A359C” in this work.
A response (% of maximal signal within this loop) [1] of 22 and a response (% of maximal signal within this loop) [2] of 37 were found for “wild-type human secretin receptor, on COS-1 cells (from UniProt P47872) A365C” in this work.
A response (% of maximal signal within this loop) [1] of 19 and a response (% of maximal signal within this loop) [2] of 43 were found for “wild-type human secretin receptor, on COS-1 cells (from UniProt P47872) L370C” in this work.
A response (% of maximal signal within this loop) [1] of 63 and a response (% of maximal signal within this loop) [2] of 70 were found for “wild-type human secretin receptor, on COS-1 cells (from UniProt P47872) F360C” in this work.
A response (% of maximal signal within this loop) [1] of 28 and a response (% of maximal signal within this loop) [2] of 46 were found for “wild-type human secretin receptor, on COS-1 cells (from UniProt P47872) F372C” in this work.
A response (% of maximal signal within this loop) [1] of 28 and a response (% of maximal signal within this loop) [2] of 62 were found for “wild-type human secretin receptor, on COS-1 cells (from UniProt P47872) E373C” in this work.
A response (% of maximal signal within this loop) [1] of 22 and a response (% of maximal signal within this loop) [2] of 40 were found for “wild-type human secretin receptor, on COS-1 cells (from UniProt P47872) F371C” in this work.
